We go through 62 molecules from US20240358755A1 (IMMATICS BIOTECHNOLOGIES, published 2024).

In the first assay the target is T1, HLA-A*02:01 (human).
T1 construct: Peptide-receptive MHC class I monomer in the UV-ligand exchange assay
As to the kind of experiment: UV peptide exchange, anti-b2m ELISA; exchange yield grade. An excerpt:
(§1) Candidate peptides for T cell based therapies according to the present invention were further tested for their MHC binding capacity (affinity). The individual peptide-MHC complexes were produced by UV-ligand exchange, where a UV-sensitive peptide is cleaved upon UV-irradiation and exchanged with the peptide of interest as analyzed. Only peptide candidates that can effectively bind and stabilize the peptide-receptive MHC molecules prevent dissociation of the MHC complexes. To determine the yield of the exchange reaction, an ELISA was performed based on the detection of the light chain (β2m) of stabilized MHC complexes. The assay was performed as generally described in Rodenko et al. (Rodenko et al., 2006).
(§2) 96 well MAXISorp plates (NUNC) were coated over night with 2 μg/ml streptavidin in PBS at room temperature, washed 4× and blocked for 1 h at 37° C. in 2% BSA containing blocking buffer. […] Peptide-MHC monomers of the UV-exchange reaction were diluted 100-fold in blocking buffer. Samples were incubated for 1 h at 37° C., washed four times, incubated with 2 μg/ml HRP conjugated anti-β2m for 1 h at 37° C., washed again and detected with TMB solution that is stopped with […]. Absorption was measured at 450 nm.
As to SLKSSILFL, the peptide exchange yield is 50 to 75%.

Regarding TLNVLITL, the peptide exchange yield fell in the range of 20 to 50%. Still for that read-out and setting: then SLQESLPNA, with 50 to 75%. Same read-out and setting: then GLLDAFLRL, with at least 75%; and LLGVVSHSV, with at least 75%; and VLQSLQHEL, with at least 75%. On the same count and under the same terms, then IIIDRILLL, with at least 75%; and LVFESVVAA, with at least 75%; and ALGPMAFRV, with at least 75%. The molecule FLLLEKGGEL displayed a peptide exchange yield of at least 75%. LLSRGILIL displayed a peptide exchange yield of at least 75%. On the same count and under the same terms, for IQAPALLKV the value was at least 75%; for SLFPISLTV, at least 75%. Still for that read-out and setting: for ALIVLHLSL the value was 20 to 50%; for ILVTAWKGV, 50 to 75%; for ILMILQPQL, at least 75%. SLSKLVATV registered a peptide exchange yield of at least 75%. Still for that read-out and setting: for RLQEGLAAL the value was at least 75%; for RLLRLIPIL, at least 75%.

For a further assay, the target named is T2, HLA-B*07:02 (human).
T2 construct: Peptide-receptive monomer in the UV-ligand exchange assay
The description is as above.
Source text: as §1, §2
With SPSSNSREL, the peptide exchange yield lay in the range of 50 to 75%. Still for that read-out and setting: for NPELLVILL the value was 50 to 75%; for VPHHLLSSV, at least 75%.

For the molecule RPLILIRI, the peptide exchange yield fell in the range of 20 to 50%. Still for that read-out and setting: then VVHGGMSIF, with 20 to 50%; and MPIQVLKGL, with at least 75%; and APLRAGWAA, with at least 75%. On the same count and under the same terms, for APLLPGPAA the value was at least 75%; for SPIGLSLIL, at least 75%; for QPAPQPLL, 50 to 75%. Still for that read-out and setting: for YVGPTRLEL the value was at least 75%; for TPSHSTPSF, 50 to 75%.

In turn, MPCTTILRI showed a peptide exchange yield of at least 75%.

Molecule SLRVPSPAL registered a peptide exchange yield of 50 to 75%. The same measure, in the same setting: then YPDVPIGQL, with 50 to 75%; and AVDLGVLEL, with 50 to 75%; and SPSSPLLLLA, with 50 to 75%. As to MPAFLSRASAL, the peptide exchange yield is at least 75%. Consider MPKLFLTAC, for which the peptide exchange yield is at least 75%. LPTRSLPAF had a peptide exchange yield of 50 to 75%. Same read-out and setting: then LPVHGPLPLLL, with 50 to 75%. Molecule SPVSASWIL registered a peptide exchange yield of at least 75%. On the same count and under the same terms, then MPANFETIGF, with at least 75%. Still for that read-out and setting: then APSLARFLSL, with at least 75%; and RPIWDVRSA, with at least 75%; and RAPLPLLLL, with 50 to 75%.

In turn, MPFLKVPPL returned a peptide exchange yield of at least 75%. Molecule RPSPVRVAAL gave a peptide exchange yield of at least 75%. The same measure, in the same setting: for HPRESLNMLVAF the value was at least 75%; for RPSLPCRSF, 50 to 75%.

Turning to APGPRSQGL, the peptide exchange yield lay within 50 to 75%. The same measure, in the same setting: then SPAPSLARFLSL, with at least 75%; and RPQGVGPAA, with at least 75%. The same measure, in the same setting: for LPHPVNSGL the value was 50 to 75%.

The molecule ASRIQVILL came in with a peptide exchange yield of 50 to 75%. The same measure, in the same setting: then TPLTRTTL, with 50 to 75%; and MPWVLMSPF, with at least 75%. Same read-out and setting: for LPALLRSL the value was at least 75%; for RPWLSSPTGL, at least 75%; for APQPRSLAA, at least 75%. Still for that read-out and setting: then IPLHFSTAF, with at least 75%; and IPISIFKMA, with 50 to 75%. For SPLPHLGPL, the peptide exchange yield is 50 to 75%.
